Consider one molecule from PMC4655273, “Schwann Cell Expressed Nogo-B Modulates Axonal Branching of Adult Sensory Neurons Through the Nogo-B Receptor NgBR” (Frontiers in Cellular Neuroscience, 2015).

The assay has as its target T1, Nogo-B (mouse (endogenous in primary Schwann …, UniProt Q99P72-5 1-356)).
T1 sequence (looked up): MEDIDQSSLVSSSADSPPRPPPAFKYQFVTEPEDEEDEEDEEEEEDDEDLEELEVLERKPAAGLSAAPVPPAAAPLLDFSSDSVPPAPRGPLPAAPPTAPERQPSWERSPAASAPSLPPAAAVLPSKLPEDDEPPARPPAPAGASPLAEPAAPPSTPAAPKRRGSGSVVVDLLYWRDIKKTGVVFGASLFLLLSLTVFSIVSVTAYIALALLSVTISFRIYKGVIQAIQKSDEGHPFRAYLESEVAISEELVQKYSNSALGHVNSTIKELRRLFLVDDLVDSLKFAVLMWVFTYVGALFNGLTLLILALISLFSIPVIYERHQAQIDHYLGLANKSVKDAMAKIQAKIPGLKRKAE
The assay can be described thus: cell-based or functional assay.

B1: Nogo-B receptor NgBR (receptor, mouse (endogenous in sensory neurons), UniProt Q99LJ8 1-297, looked up)
chain: MTGLYELVWRVLHALLCLHLTLTSWLRVRFGTWNWIWRRCCRAASAAVLAPLGFTLRKPRAVGRNRRHHRHPHGGPGPGPGPAATHPRLRWRADVRSLQKLPVHMGLLVTEEVQEPSFSDIASLVVWCMAVGISYISVYDHQGIFKRNNSRLMDEILKQQQELLGQDCSKYSAEFANSNDKDDQDLNCPSAVKVLSPEDGKADIVRAAQDFCQLVAQQQRKPTDLDVDLLGSLLSSHGFPDPDLVLKFGPVDSTLGFLPWQIRLTEIVSLPSHLNISYEDFFSALRQYAACEQRLGK
Turning to B1, the “total neurite length (TNL) of adult wildtype sensory neurons on wildtype Schwann cells with recombinant NgBR-Ecto at 1 μg/ml, relative to control (set to 1.0)” value is 0.74 relative to the control levels.
